Stoichiometry N, Kd and dH data for two substances are collected here from paper PMC9938351.

Assay [1] deals with SARS-CoV-2 ubiquitin-like domain 1 (Ubl1) of Nsp3 (residues 1–111) (SARS-CoV-2). Put plainly: dynamic light scattering.
Assay [2] has as its target SARS-CoV-2 nucleocapsid (N) protein (residues 1–419) (SARS-CoV-2) (UniProt P0DTC9). The assay is described as follows: ITC. On the technique in general: In ITC the heat of successive injections is recorded.
The target of assay [3] is SARS-CoV-2 ubiquitin-like domain 1 (Ubl1) of Nsp3 (residues 1–111) (SARS-CoV-2). The assay is described as follows: cross-linking.

On to “SARS-CoV-2 N protein N-terminal domain (NTD, residues 47–174) (from UniProt P0DTC9 47-174) (domain or fragment)”, for which, in assay [1], the stoichiometry N (as a rule, the number of molecules, sites or subunits per partner or assembly) was 0.5 NTD per Ubl1.

Take “SARS-CoV-2 ubiquitin-like domain 1 (Ubl1) of Nsp3 (residues 1–111) (domain or fragment)”: in assay [2], the Kd (commonly the concentration at which binding is half-saturated) stood at 800 nM, the dH was -62.5 kJ/mol and the stoichiometry N turned out to be 1.19. This substance also returned a stoichiometry N in assay [3] of 2.
